Target: TSLP (M29-130), longer subunit of the PCSK-generated heterodimeric TSLP (human, UniProt Q969D9 29-130)
Test: MALDI-TOF MS with and without DTT

binding result: binds
B1: TSLP (131-159), shorter subunit of the truncated thymic stromal lymphopoietin (peptide, UniProt Q969D9 131-159, looked up)
chain: KVTTNKCLEQVSQLQGLWRRFNRPLLKQQ
